# Results: paper PMC2649980 (Proteins, 2009)
# Target: the molecule itself
# Experiment: SEC
protein,measurement,value
"D355R TRβ LBD (human thyroid hormone receptor beta ligand binding domain, a.a. 209-461, D355R), TRIAC-bound (domain or fragment, UniProt P10828 209-461, looked up) GHKPEPTDEEWELIKTVTEAHVATNAQGSHWKQKRKFLPEDIGQAPIVNAPEGGKVDLEAFSHFTKIITPAITRVVDFAKKLPMFCELPCEDQIILLKGCCMEIMSLRAAVRYDPESETLTLNGEMAVTRGQLKNGGLGVVSDAIFRLGMSLSSFNLDDTEVALLQAVLLMSSDRPGLACVERIEKYQDSFLLAFEHYINYRKHHVTHFWPKLLMKVTDLRMIGACHASRFLHMKVECPTELFPPLFLEVFED",stoichiometry N,2
